T1: Macaca Fascicularis GP130 extracellular domain expressed with a C-terminal myc-myc-hexahistidine tag (Macaca fascicularis, UniProt P40189 23-619 (human entry))
T1 construct: also called mfGP130-MMH; mfGP130-mmH
T1 chain: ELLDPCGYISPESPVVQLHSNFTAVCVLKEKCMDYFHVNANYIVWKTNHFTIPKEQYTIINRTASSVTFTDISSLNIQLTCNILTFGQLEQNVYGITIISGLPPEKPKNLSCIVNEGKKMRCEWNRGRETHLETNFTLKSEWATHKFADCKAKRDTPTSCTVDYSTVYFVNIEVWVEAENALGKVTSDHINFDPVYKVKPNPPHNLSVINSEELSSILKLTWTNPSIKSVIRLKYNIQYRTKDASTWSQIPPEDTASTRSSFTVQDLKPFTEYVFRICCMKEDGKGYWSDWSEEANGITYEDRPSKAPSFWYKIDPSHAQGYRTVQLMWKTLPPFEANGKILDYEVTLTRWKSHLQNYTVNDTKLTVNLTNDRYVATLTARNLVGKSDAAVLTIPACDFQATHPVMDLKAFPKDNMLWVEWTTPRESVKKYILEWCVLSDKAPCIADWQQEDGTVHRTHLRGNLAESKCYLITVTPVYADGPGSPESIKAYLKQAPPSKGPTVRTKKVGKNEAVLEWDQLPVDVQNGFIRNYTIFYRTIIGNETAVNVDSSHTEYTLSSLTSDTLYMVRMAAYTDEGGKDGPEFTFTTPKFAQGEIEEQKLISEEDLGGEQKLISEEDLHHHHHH


Key:
[1] = target: T2, human GP130 extracellular domain expressed with a C-terminal myc-myc-hexahistidine tag (human, UniProt P40189 23-619); assay: SPR, bsAb captured by anti-hFc, 25C
T2 construct: also called hGP130-MMH; hGP130-mmH
Description: (§1) Equilibrium dissociation constants (KD values) for LEPR and GP130 binding to purified anti-LEPR/GP130 bispecific antibodies were determined using a real-time surface plasmon resonance biosensor using a Biacore 4000 instrument. All binding studies were performed in 10 mM HEPES, 150 mM NaCl, 3 mM EDTA, and 0.05% v/v Surfactant Tween-20, pH 7.4 (HBS-ET) running buffer at 25° C. and 37° C. The Biacore sensor surface was first derivatized by amine coupling with a monoclonal mouse anti-human Fc antibody (GE, #BR-1008-39) to capture anti-LEPR/GP130 bispecific antibodies. […] Different concentrations of LEPR or GP130 reagents were first prepared in HBS-ET running buffer (100 nM-3.7 nM; 3-fold serial dilution) and were injected over anti-human Fc captured anti-LEPR/GP130 bispecific antibody surface for 4 minutes at a flow rate of 30 μL/minute, while the dissociation of bispecific antibody bound LEPR or GP130 reagent was monitored for 10 minutes in HBS-ET running buffer. Kinetic association (kₐ) and dissociation (kd) rate constants were determined by fitting the real-time binding sensorgrams to a 1:1 binding model with mass transport limitation using Scrubber 2.0c curve-fitting software. Binding dissociation equilibrium constants (KD) and dissociative half-lives (t ½) were calculated from the kinetic rate constants as: […]

[2] = target: T1, Macaca Fascicularis GP130 extracellular …; assay: SPR, bsAb captured by anti-hFc, 25C
Description: as §1

[3] = target: T2, human GP130 extracellular domain …; assay: SPR, bsAb captured by anti-hFc, 37C
Description: as §1

[4] = target: T1, Macaca Fascicularis GP130 extracellular …; assay: SPR, bsAb captured by anti-hFc, 37C
Description: as §1

Binder | 100 nM hGP130-MMH Bound (RU) [1] [RU] | Kd [1] [nM] | koff [1] [s⁻¹] | kon [1] [M⁻¹ s⁻¹] | t½ [1] [min] | 100 nM mfGP130-MMH Bound (RU) [2] [RU] | Kd [2] [nM] | koff [2] [s⁻¹] | kon [2] [M⁻¹ s⁻¹] | t½ [2] [min] | 100 nM hGP130-MMH Bound (RU) [3] [RU] | Kd [3] [nM] | koff [3] [s⁻¹] | kon [3] [M⁻¹ s⁻¹] | t½ [3] [min] | 100 nM mfGP130-MMH Bound (RU) [4] [RU] | Kd [4] [nM] | koff [4] [s⁻¹] | kon [4] [M⁻¹ s⁻¹] | t½ [4] [min] | also measured
bsAb19141D (bispecific antibody, V domains shown, LEPR x GP130 bispecific with common light chain) VH 1: QVQLVESGGGVVQPGRSLRLSCTASGFTFSSYAMYWVRQAPGKGLEWVSVIYYDGSYKYYADSVKGRFTISRDNSKNTLYLQMDSLRAEDTAVYYCASYNWNYWYFDFWGRGTLVTVSS VH 2: EVQLVESGGGVVRPGGSLRLSCTASGFTFDDYGMSWVRQAPGKGLEWVSGINWNGGRTEYADAVKGRFIISRDNAKNSLYLQMNSLRAEDTALYFCARTELRWDYWGQGTLVTVSS VL: not shown | 15 | 219 | 0.0232 | 106000 | 0.5 | 15 | 184 | 0.0207 | 112000 | 0.6 | 15 | 347 | 0.0621 | 179000 | 0.2 | 15 | 212 | 0.0513 | 242000 | 0.2 | –
bsAb19145D (bispecific antibody, V domains shown, LEPR x GP130 bispecific with common light chain) VH 1: QVQLVESGGGVVQPGRSLRLSCTASGFTFSSYAMYWVRQAPGKGLEWVSVIYYDGSYKYYADSVKGRFTISRDNSKNTLYLQMDSLRAEDTAVYYCASYNWNYWYFDFWGRGTLVTVSS VH 2: EVQLVESGGGLVQPGRSLRLSCAASGFTLDDFAMHWVRQAPGKGLEWVSGISWNSGNIGYADSVKGRFTISRDNARNSLYLQMNSLRAEDTALYYCTSGYYLYYAMDVWGQGTTVTVSS VL: not shown | 19 | 17.5 | 0.000598 | 34100 | 19 | 18 | 17.4 | 0.000576 | 33100 | 20 | 30 | 32 | 0.00222 | 69200 | 5 | 29 | 37.6 | 0.00221 | 58800 | 5 | –
bsAb19142D (bispecific antibody, V domains shown, LEPR x GP130 bispecific with common light chain) VH 1: QVQLVESGGGVVQPGRSLRLSCTASGFTFSSYAMYWVRQAPGKGLEWVSVIYYDGSYKYYADSVKGRFTISRDNSKNTLYLQMDSLRAEDTAVYYCASYNWNYWYFDFWGRGTLVTVSS VH 2: EVQLVESGGGLVQPGGSLRLSCAASGLTFSSYEMNWVRQAPGKGLEWVSHISSAGSTKYYADSVKGRFTISRDNAKNSLFLQMNSLRAEDTAIYYCAGYNYAYYYFGVDVWGQGTTVTVSS VL: not shown | 31 | 19 | 0.00329 | 173000 | 4 | 28 | 31.2 | 0.00374 | 120000 | 3.1 | 37 | 17.5 | 0.00622 | 356000 | 1.9 | 33 | 21.6 | 0.00715 | 332000 | 1.6 | –
bsAb19144D (bispecific antibody, V domains shown, LEPR x GP130 bispecific with common light chain) VH 1: QVQLVESGGGVVQPGRSLRLSCTASGFTFSSYAMYWVRQAPGKGLEWVSVIYYDGSYKYYADSVKGRFTISRDNSKNTLYLQMDSLRAEDTAVYYCASYNWNYWYFDFWGRGTLVTVSS VH 2: QVQLVQSGAEVKKPGASVKVSCKASGYTFTSLGISWVRQAPGQGLEWMGWISAYSGNRDYAQKFQGRVTMTTDTSTSTAYMELRSLRSDDTAVYYCARSLRFDYWGQGTLVTVSS VL: not shown | 27 | 12.1 | 0.000777 | 64300 | 15 | 27 | 13.4 | 0.000762 | 56700 | 15 | 42 | 10.6 | 0.00188 | 177000 | 6 | 41 | 10.9 | 0.00183 | 168000 | 6 | –
bsAb19143D (bispecific antibody, V domains shown, LEPR x GP130 bispecific with common light chain) VH 1: QVQLVESGGGVVQPGRSLRLSCTASGFTFSSYAMYWVRQAPGKGLEWVSVIYYDGSYKYYADSVKGRFTISRDNSKNTLYLQMDSLRAEDTAVYYCASYNWNYWYFDFWGRGTLVTVSS VH 2: QLQLQESGPGLVKPSETLSLICTVSGGSISSNNYYWGWIRQPPGKGLEWIGNLYGSGSTYYNPSLKSRVTISVDTSKNQFSLKLSFVTAADTAVYHCARWDTNGGAFDIWGQGTMVTVSS VL: not shown | 16 | 20.2 | 0.000647 | 32000 | 18 | 10 | 43 | 0.0013 | 30100 | 9 | 27 | 44.6 | 0.00212 | 47600 | 5 | 14 | 57.9 | 0.00396 | 68300 | 2.9 | –

Further lines, with some results ahead:

100 nM hGP130-MMH Bound (RU) [1] [RU] | Kd [1] [nM] | koff [1] [s⁻¹] | kon [1] [M⁻¹ s⁻¹] | t½ [1] [min] | 100 nM mfGP130-MMH Bound (RU) [2] [RU] | Kd [2] [nM] | koff [2] [s⁻¹] | kon [2] [M⁻¹ s⁻¹] | t½ [2] [min] | 100 nM hGP130-MMH Bound (RU) [3] [RU] | Kd [3] [nM] | koff [3] [s⁻¹] | kon [3] [M⁻¹ s⁻¹] | t½ [3] [min] | 100 nM mfGP130-MMH Bound (RU) [4] [RU] | Kd [4] [nM] | koff [4] [s⁻¹] | kon [4] [M⁻¹ s⁻¹] | t½ [4] [min] | Binder | also measured
31 | 0.448 | 0.000273 | 609000 | 42 | 31 | 0.513 | 0.000258 | 502000 | 45 | 53 | 0.901 | 0.000641 | 712000 | 18 | 53 | 0.959 | 0.000626 | 653000 | 18 | bsAb19146D (bispecific antibody, V domains shown, LEPR x GP130 bispecific with common light chain) VH 1: QVQLVESGGGVVQPGRSLRLSCTASGFTFSSYAMYWVRQAPGKGLEWVSVIYYDGSYKYYADSVKGRFTISRDNSKNTLYLQMDSLRAEDTAVYYCASYNWNYWYFDFWGRGTLVTVSS VH 2: QVQLVQSGPEVKKPGSSVKVSCKASGGTIDRNEITWVRQAPGQGLEWMGVIIPILGEAHYERKFQGRLTITMDESTSTAYMELSNLRSEDTAVYYCARERAARGYLDYWGQGTLVTVSS VL: not shown | –
9 | 10.5 | 0.000221 | 21100 | 52 | 3 | – | – | – | – | 16 | 16.6 | 0.000373 | 22400 | 31 | 6 | – | – | – | – | bsAb19151D (bispecific antibody, V domains shown, LEPR x GP130 bispecific with common light chain) VH 1: QVQLVESGGGVVQPGRSLRLSCTASGFTFSSYAMYWVRQAPGKGLEWVSVIYYDGSYKYYADSVKGRFTISRDNSKNTLYLQMDSLRAEDTAVYYCASYNWNYWYFDFWGRGTLVTVSS VH 2: EVQLVESGGGLVQPGGSLRLSCAASGFTFSSYAMNWVRQAPGKGLEWVSAISGSGDSTYYTDSVKGRFTISRDNSKNTLYLQMNTLRAEDTAVYYCAKEEIVMLVGATPGWFDPWGQGTLVTVSS VL: not shown | binding result [2]: no binding (tested: 100 nM)
47 | 14 | 0.0048 | 342000 | 2.4 | 44 | 16.8 | 0.00519 | 308000 | 2.2 | 52 | 15.4 | 0.00665 | 433000 | 1.7 | 46 | 19.3 | 0.00773 | 401000 | 1.5 | bsAb19150D (bispecific antibody, V domains shown, LEPR x GP130 bispecific with common light chain) VH 1: QVQLVESGGGVVQPGRSLRLSCTASGFTFSSYAMYWVRQAPGKGLEWVSVIYYDGSYKYYADSVKGRFTISRDNSKNTLYLQMDSLRAEDTAVYYCASYNWNYWYFDFWGRGTLVTVSS VH 2: EVQLVESGGGLVQSGGSLRLSCAASGFTFSRYEMNWVRQAPGKGLEWVAYISNTGTTRDYSDSVKGRFTISRDNAKNSLYLQMSSLRVEDTAVYYCVREKFSGTSDWFDPWGQGTLVTVSS VL: not shown | –

Source: patent US20240158497A1 (published 2024)
